Results taken from patent US20210155689A1 (SHANGHAI PHARMAEXPLORER, published 2021).
Substitutions are numbered along the chain they refer to.

T1: human LAG-3 ECD (antigen protein of the affinity test) (human, UniProt P18627 23-450)
T1 sequence: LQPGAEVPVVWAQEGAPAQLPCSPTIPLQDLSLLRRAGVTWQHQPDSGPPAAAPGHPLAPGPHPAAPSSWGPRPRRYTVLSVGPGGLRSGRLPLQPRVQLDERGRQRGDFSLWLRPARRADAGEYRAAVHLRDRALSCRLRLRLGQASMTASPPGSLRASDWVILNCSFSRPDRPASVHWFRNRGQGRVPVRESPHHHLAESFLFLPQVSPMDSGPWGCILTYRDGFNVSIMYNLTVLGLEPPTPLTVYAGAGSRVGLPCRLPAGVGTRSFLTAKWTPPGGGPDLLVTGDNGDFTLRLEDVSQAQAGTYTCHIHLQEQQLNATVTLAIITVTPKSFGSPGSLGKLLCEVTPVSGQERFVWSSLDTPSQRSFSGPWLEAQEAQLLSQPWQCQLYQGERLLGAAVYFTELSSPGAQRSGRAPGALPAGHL

T2: human LAG-3 on cells (HEK293-hLAG-3 stable cell line) (human, UniProt P18627 23-525)
T2 sequence: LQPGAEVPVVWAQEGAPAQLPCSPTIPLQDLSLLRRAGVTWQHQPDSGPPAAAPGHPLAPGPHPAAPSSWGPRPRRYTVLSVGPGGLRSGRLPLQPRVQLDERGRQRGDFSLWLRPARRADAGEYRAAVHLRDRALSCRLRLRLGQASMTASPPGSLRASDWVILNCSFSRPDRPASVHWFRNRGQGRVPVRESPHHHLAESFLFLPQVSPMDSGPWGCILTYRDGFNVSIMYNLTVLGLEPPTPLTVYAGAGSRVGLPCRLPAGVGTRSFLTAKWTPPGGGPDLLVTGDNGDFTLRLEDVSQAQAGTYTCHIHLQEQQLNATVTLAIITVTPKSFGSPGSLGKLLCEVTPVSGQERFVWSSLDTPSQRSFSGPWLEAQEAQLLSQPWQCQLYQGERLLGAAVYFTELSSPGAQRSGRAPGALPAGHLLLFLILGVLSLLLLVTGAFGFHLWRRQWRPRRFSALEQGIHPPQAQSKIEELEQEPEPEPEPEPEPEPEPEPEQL

T3: human LAG-3 ECD (antigen protein of the affinity test) (human, UniProt P18627 23-450)
T3 sequence: T1 sequence

B1: 405B8H3-1 (D→E) hot-spot mutated humanized antibody (antibody, V domains shown)
VH: QVQLVQSGAEVKKPGASVKVSCKASGYTFTDYEMHWVRQAPGQGLEWMGATDPETGNSAYNQKFKGRVTMTRDTSTSTVYMELSSLRSEDTAVYYCISTGWNDWGQGTTVTVSS
VL: DIQMTQSPSSLSASVGDRVTITCKASQDINSYLSWFQQKPGKAPKSLIYRADRLLEGVPSRFSGSGSGTDFTLTISSLQPEDFATYYCLQYDEFPYTFGQGTKLEIK
B2: 405B8H3 mouse-human chimeric antibody (antibody, V domains shown)
VH: QVQLQQSGAELVRPGASVTLSCKASGYTFTDYEMHWVKQTPVHGLEWIGATDPETGNSAYNQKFKGKAIMTADKSSSTAYMELRSLTSEDSAVYYCISTGWNDWGQGTSLTVSS
VL: DIKMTQSPSSMYASLGERVTITCKASQDINSYLSWFQQKPGKSPKTLIYRADRLLDGVPSRFSGSGSGQDYSLTISSLEYGDMGIYYCLQYDEFPYTFGGGTKLEIK
notes: also called mAb103-405B8H3
B3: 556F6B8-6 humanized antibody (antibody, V domains shown)
VH: QVQLQESGPGLVKPSETLSLTCTVSGFSIIKYGVHWIRQPPGKGLEWIGVIWRGGITDYNAAFMSRVTISVDTSKNQFSLKLSSVTAADTAVYYCARWDGPLAMDYWGQGTTVTVSS
VL: DIVLTQSPSFLSASVGDRVTITCKASQDVGTTVAWYQQKPGKAPKLLIYWASTRHTGVPSRFSGSGSGTEFTLTISSLQPEDFATYYCQQYSSYPYTFGQGTKLEIK
B4: 556F6B8-3 humanized antibody (antibody, V domains shown)
VH: B3 VH with I29L, V71K, N76S, F78V
VL: B3 VL with V3Q
B5: 556F6B8-11 humanized antibody (antibody, V domains shown)
VH: B3 VH with I29L, V71K, N76S, F78V
VL: B3 VL with A43S
B6: 556F6B8-7 humanized antibody (antibody, V domains shown)
VH: B3 VH with I29L, V71K, N76S, F78V
VL: B3 VL
B7: 556F6B8-9 humanized antibody (antibody, V domains shown)
VH: B3 VH with F27G, I30S
VL: B3 VL with A43S
B8: 556F6B8-2 humanized antibody (antibody, V domains shown)
VH: B3 VH
VL: B3 VL with V3Q
B9: 556F6B8-4 humanized antibody (antibody, V domains shown)
VH: B3 VH with Q1R, I29L, V71K, N76S, F78V, R97K
VL: B3 VL with V3Q
B10: 556F6B8-12 humanized antibody (antibody, V domains shown)
VH: B3 VH with Q1R, I29L, V71K, N76S, F78V, R97K
VL: B3 VL with A43S
B11: 556F6B8-1 humanized antibody (antibody, V domains shown)
VH: B3 VH with F27G, I30S
VL: B3 VL with V3Q
B12: 556F6B8-5 humanized antibody (antibody, V domains shown)
VH: B3 VH with F27G, I30S
VL: B3 VL
B13: 556F6B8-8 humanized antibody (antibody, V domains shown)
VH: B3 VH with Q1R, I29L, V71K, N76S, F78V, R97K
VL: B3 VL
B14: 556F6B8-10 humanized antibody (antibody, V domains shown)
VH: B3 VH
VL: B3 VL with A43S

How the values were obtained:
[1] = target: T1, human LAG-3 ECD (antigen protein of the …); experiment: SPR (CM5 chip), antibody captured by anti-human Fc IgG, antigen protein in flow, 1:1 model
Method: (§1) First, anti-human Fc IgG was immobilized on the surface of the CM5 chip to 6000-10000 RU by amino coupling method, with FC1 as the reference channel. The coupling process was as follows: a freshly prepared 1:1 mixture of 50 mM NHS and 200 mM EDC was activated for 7 minutes, then injected with 10-50 ug/ml anti-human Fc IgG diluted in 10 mM sodium acetate ph5.0 buffer. The remaining activated sites were blocked with 1M ethanolamine. Then, HBS-EP+ buffer was used to dilute the antibody to be tested to 5 ug/ml (adjustable according to the capture level) and the antibodies were captured on the chip at a flow rate of 10 ul/min to obtain a response value of about 100˜300 RU. Then the antigen protein was diluted to 100 nM (the highest concentration was tentatively 100 nM), and flew through the chip surface at a flow rate of 30 ul/min. If enough signal value was obtained, the antigen-protein was diluted by several concentration gradients, and flew through the chip surface respectively. At the end of each cycle, the chip surface was regenerated with 10 mM Glycine at pH 1.5. The kinetic rate constant needed to be subtracted from the blank control, and the data was fitted with the global fit analysis method 1:1 combination model. The dissociation equilibrium rate constant (KD) was calculated according to the following formula: KD=kd/ka.
The method was the same as that in Example 5.

[2] = target: T2, human LAG-3 on cells (HEK293-hLAG-3 …); experiment: FACS, HEK293-hLAG-3, antibody 0 nM
[3] = target: T2, human LAG-3 on cells (HEK293-hLAG-3 …); experiment: FACS, HEK293-hLAG-3, antibody 8 nM
[4] = target: T2, human LAG-3 on cells (HEK293-hLAG-3 …); experiment: FACS, HEK293-hLAG-3, antibody 40 nM
[5] = target: T2, human LAG-3 on cells (HEK293-hLAG-3 …); experiment: FACS, HEK293-hLAG-3, antibody 1.6 nM
[6] = target: T2, human LAG-3 on cells (HEK293-hLAG-3 …); experiment: FACS, HEK293-hLAG-3, antibody 0.32 nM
[7] = target: T2, human LAG-3 on cells (HEK293-hLAG-3 …); experiment: FACS, HEK293-hLAG-3, antibody 0.013 nM
[8] = target: T2, human LAG-3 on cells (HEK293-hLAG-3 …); experiment: FACS, HEK293-hLAG-3, antibody 0.064 nM
[9] = target: T3, human LAG-3 ECD (antigen protein of the …); experiment: SPR, CM5 chip, antibody captured by anti-human Fc IgG, antigen in flow, 1:1 fit
Method: as §1

Binder | Kd [1] | koff [1] | kon [1] | Mean fluorescence intensity [2] | Mean fluorescence intensity [3] | Mean fluorescence intensity [4] | Mean fluorescence intensity [5] | Mean fluorescence intensity [6] | Mean fluorescence intensity [7] | Mean fluorescence intensity [8] | Kd [9] | koff [9] | kon [9]
B1 | 2.03 nM | 0.000158 s⁻¹ | 77500 M⁻¹ s⁻¹ | – | – | – | – | – | – | – | – | – | –
B2 | 3.11 nM | 0.000164 s⁻¹ | 52800 M⁻¹ s⁻¹ | – | – | – | – | – | – | – | – | – | –
B3 | – | – | – | 4 | 39 | 50 | 23 | 10 | 4 | 6 | – | – | –
B4 | – | – | – | 4 | 94 | 98 | 83 | 49 | 10 | 21 | 3.31 nM | 0.000465 s⁻¹ | 141000 M⁻¹ s⁻¹
B5 | – | – | – | 4 | 97 | 100 | 87 | 51 | 9 | 20 | – | – | –
B6 | – | – | – | 4 | 93 | 98 | 79 | 44 | 8 | 18 | 3.25 nM | 0.000453 s⁻¹ | 139000 M⁻¹ s⁻¹
B7 | – | – | – | 4 | 18 | 33 | 9 | 5 | 4 | 4 | – | – | –
B8 | – | – | – | 4 | 37 | 49 | 23 | 10 | 4 | 5 | – | – | –
B9 | – | – | – | 4 | 77 | 82 | 62 | 32 | 7 | 14 | – | – | –
B10 | – | – | – | 4 | 83 | 87 | 70 | 36 | 8 | 15 | – | – | –
B11 | – | – | – | 4 | 19 | 33 | 9 | 5 | 4 | 4 | – | – | –
B12 | – | – | – | 4 | 16 | 32 | 8 | 5 | 4 | 4 | – | – | –
B13 | – | – | – | 4 | 79 | 83 | 64 | 36 | 8 | 15 | – | – | –
B14 | – | – | – | 4 | 44 | 54 | 27 | 11 | 4 | 6 | – | – | –
